# What was measured:
# Experiment in all cases: SPR; set-up for the IgG1 comparator not stated
# [1] = biological target: Human CD64 (human) (UniProt P12314)
# [2] = biological target: Human CD16a (human) (UniProt P08637)
# [3] = biological target: Human CD32b (human) (UniProt P31994)
# [4] = biological target: Human CD32a (human) (UniProt P12318)
# [5] = biological target: Human CD16b (human) (UniProt O75015)
# Chain of Human CD16b (human) (O75015 17-200 limits assumed): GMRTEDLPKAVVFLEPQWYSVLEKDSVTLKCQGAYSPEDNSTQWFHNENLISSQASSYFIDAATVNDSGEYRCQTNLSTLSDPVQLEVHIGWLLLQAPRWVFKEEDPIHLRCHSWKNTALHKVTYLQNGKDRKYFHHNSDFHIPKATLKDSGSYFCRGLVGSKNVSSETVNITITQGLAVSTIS
# Chain of Human CD32b (human) (P31994 46-217 limits assumed): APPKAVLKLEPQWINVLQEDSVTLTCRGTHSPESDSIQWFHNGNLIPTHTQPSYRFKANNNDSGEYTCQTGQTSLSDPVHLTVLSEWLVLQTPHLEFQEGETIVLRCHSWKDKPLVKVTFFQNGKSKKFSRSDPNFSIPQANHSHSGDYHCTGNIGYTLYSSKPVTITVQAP
# Chain of Human CD64 (human) (P12314 16-288 limits assumed): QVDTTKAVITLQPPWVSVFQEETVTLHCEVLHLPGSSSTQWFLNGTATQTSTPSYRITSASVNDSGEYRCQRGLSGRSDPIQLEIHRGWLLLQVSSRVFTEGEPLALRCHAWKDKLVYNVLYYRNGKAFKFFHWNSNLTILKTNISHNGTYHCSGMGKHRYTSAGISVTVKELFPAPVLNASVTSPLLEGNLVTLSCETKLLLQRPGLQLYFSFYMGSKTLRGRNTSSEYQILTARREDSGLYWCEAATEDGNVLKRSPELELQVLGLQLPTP
# Chain of Human CD32a (human) (P12318 36-218 limits assumed): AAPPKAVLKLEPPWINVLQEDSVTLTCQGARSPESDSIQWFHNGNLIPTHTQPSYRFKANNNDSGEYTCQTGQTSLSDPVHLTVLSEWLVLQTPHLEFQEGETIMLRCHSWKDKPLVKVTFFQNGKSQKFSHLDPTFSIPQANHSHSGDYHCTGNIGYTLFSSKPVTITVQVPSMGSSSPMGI
# Chain of Human CD16a (human) (P08637 17-208 limits assumed): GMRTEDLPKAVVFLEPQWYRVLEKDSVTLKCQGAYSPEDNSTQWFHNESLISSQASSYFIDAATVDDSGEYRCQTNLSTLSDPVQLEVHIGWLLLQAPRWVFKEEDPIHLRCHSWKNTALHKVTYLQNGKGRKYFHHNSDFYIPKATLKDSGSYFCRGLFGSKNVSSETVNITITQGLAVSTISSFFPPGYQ
substance,measurement,setting,value
Full length human IgG1 antibody,Kd,[1],0.24 nM
same,Kd,[2],630 nM
same,Kd,[3],1180 nM
same,Kd,[4],379 nM
same,Kd,[5],2410 nM
